Experimental data as given in patent US20250002593A1 (INMAGENE PTE, published 2025).
Where two headings read alike, the source gives them in different places. Each block holds one binder with its values, some of them ahead of it.

Tests used:
membrane hIL-36R [1] = biological target: T1, membrane hIL-36R (human, UniProt Q9HB29 20-575); experiment: cell-based or functional assay
T1 sequence: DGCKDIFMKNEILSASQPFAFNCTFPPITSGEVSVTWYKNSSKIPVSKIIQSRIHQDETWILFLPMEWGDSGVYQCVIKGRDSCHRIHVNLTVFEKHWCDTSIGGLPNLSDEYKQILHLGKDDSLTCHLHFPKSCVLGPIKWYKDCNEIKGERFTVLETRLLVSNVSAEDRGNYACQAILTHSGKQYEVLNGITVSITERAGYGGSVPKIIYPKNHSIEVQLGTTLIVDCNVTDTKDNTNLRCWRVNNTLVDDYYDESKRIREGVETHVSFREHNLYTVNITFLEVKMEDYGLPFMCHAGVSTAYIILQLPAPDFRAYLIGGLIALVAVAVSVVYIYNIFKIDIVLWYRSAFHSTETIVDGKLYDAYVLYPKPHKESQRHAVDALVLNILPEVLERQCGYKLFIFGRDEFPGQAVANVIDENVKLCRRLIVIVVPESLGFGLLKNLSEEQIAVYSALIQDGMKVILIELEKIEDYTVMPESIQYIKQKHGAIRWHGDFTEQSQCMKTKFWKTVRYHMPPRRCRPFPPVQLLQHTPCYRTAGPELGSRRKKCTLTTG

[2] = biological target: T2, Recombinant cynomolgus IL36R protein (Acrobio, Cat #IL2-C52H5) (cynomolgus, UniProt A0A2K5WSK9 20-335); experiment: BLI, antibody on Protein A sensor, recombinant cynomolgus IL36R as analyte
T2 construct: Bought; also called cyno IL-36R
T2 sequence: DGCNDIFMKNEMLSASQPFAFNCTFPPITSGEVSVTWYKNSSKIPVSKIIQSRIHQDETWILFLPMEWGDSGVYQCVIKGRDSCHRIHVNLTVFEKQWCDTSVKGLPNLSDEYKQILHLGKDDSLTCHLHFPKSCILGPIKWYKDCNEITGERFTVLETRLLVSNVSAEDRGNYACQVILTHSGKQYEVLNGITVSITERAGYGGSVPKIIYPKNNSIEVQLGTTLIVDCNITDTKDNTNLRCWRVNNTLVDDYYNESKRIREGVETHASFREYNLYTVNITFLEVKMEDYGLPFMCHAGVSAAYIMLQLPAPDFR

[3] = biological target: T3, mouse IL-36R (R&D, Cat #2354-RP) (mouse, UniProt Q9ERS7 22-338, limits assumed); experiment: BLI, antibody on Protein A sensor, recombinant mouse IL-36R as analyte
T3 construct: Bought; also called recombinant mouse IL-36R protein
T3 sequence (looked up): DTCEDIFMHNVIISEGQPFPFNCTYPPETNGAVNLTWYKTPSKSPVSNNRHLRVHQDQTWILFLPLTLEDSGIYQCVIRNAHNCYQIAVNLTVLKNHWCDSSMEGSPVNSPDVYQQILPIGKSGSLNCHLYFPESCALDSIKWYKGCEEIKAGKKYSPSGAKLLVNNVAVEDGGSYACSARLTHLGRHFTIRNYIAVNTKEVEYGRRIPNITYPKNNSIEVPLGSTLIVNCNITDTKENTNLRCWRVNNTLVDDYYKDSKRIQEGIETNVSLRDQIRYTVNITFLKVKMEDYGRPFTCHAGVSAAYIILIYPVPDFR

[4] = biological target: T4, Recombinant hIL-36R protein (Acrobio, Cat #IL2-H52H6) (human, UniProt Q9HB29 20-335); experiment: BLI as in Example 2, antibody on Protein A sensor, hIL-36R analyte
T4 construct: Bought soluble protein; also called recombinant human IL-36R protein
T4 sequence: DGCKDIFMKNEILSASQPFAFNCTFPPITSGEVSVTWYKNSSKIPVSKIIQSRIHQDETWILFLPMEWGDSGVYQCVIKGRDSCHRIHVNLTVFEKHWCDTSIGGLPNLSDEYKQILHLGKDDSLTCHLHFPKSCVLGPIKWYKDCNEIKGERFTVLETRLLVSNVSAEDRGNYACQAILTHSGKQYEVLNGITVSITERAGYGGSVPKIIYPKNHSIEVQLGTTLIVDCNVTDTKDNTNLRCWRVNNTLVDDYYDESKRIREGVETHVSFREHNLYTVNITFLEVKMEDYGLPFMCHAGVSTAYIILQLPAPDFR

membrane hIL-36R [5] = biological target: T1, membrane hIL-36R; experiment: cell-based or functional assay; remark: listed apart in the source
membrane hIL-36R [6] = biological target: T1, membrane hIL-36R; experiment: cell-based or functional assay; remark: listed apart in the source
membrane hIL-36R [7] = biological target: T1, membrane hIL-36R; experiment: cell-based or functional assay; remark: listed apart in the source
membrane hIL-36R [8] = biological target: T1, membrane hIL-36R; experiment: flow cytometry on HEK293 cells transfected with pcDNA3.1-hIL36R, FITC anti-hIgG, MFI (median); unit taken from the x axis
membrane hIL-36R [9] = biological target: T1, membrane hIL-36R; experiment: cell-based or functional assay; remark: listed apart in the source
recombinant hIL-36R-his = biological target: T5, recombinant hIL-36R-his (human, UniProt Q9HB29 20-337); experiment: ELISA on coated recombinant hIL36R protein (1 µg/ml), detection with HRP anti-hIgG; unit taken from the x axis Ab(µg/mL)
T5 construct: Residues 1-337 (extracellular domain) are stated for the IL-36R-his used as immunogen; The range includes the signal peptide; no cleavage site is stated; also called recombinant hIL36R protein; recombinant human IL-36R-his protein; not shown: His tag
T5 sequence: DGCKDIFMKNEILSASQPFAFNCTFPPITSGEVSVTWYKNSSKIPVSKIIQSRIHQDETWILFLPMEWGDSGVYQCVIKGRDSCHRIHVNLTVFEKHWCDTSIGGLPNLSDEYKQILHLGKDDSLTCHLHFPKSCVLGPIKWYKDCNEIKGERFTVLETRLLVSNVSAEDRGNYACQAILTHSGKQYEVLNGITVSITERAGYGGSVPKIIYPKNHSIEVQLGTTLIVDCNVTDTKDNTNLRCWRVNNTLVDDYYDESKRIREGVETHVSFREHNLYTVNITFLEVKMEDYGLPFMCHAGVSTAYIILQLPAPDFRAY

membrane hIL-36R [10] = biological target: T1, membrane hIL-36R; experiment: cell-based or functional assay; remark: listed apart in the source
[11] = biological target: T6, Recombinant hIL1R1 protein (human, UniProt P14778 18-332, limits assumed); experiment: ELISA on coated recombinant hIL1R1 protein, detection with HRP anti-hIgG
T6 sequence (looked up): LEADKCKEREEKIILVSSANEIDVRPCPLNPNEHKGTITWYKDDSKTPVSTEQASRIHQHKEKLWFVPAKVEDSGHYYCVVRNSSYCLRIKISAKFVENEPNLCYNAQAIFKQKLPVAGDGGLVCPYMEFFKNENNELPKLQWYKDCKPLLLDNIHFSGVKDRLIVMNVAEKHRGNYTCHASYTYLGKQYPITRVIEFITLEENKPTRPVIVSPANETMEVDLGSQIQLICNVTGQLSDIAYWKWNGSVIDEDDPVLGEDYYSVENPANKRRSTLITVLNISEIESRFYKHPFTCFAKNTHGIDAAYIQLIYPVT

membrane hIL-36R [12] = biological target: T1, membrane hIL-36R; experiment: cell-based or functional assay; remark: listed apart in the source
membrane hIL-36R [13] = biological target: T1, membrane hIL-36R; experiment: cell-based or functional assay; remark: listed apart in the source
[14] = biological target: T4, Recombinant hIL-36R protein (Acrobio, …); experiment: SPR (Biacore T200, 25 C), antibody captured by Fc, hIL-36R analyte

- IC50, IL-36R reporter assay: inhibition of ligand induced luminescence in Jurkat-IL36R-IL1Racp-NFkB-luc cells (membrane hIL-36R [1]): 0.0637 µg/mL
- binding result [2]: no binding (tested: up to 100 nM IL-36R)
- binding result [3]: no binding (tested: up to 100 nM IL-36R)
- Kd [4]: 4.55 nM
- koff [4]: 0.000194 s⁻¹
- kon [4]: 42700 M⁻¹ s⁻¹
B1: 5F7-hu-3 (antibody, V domains shown)
VH: QVQLVESGGGLVKPGGSLRLSCAASGFAFTDYYMNWIRQAPGKGLEWVALIRNKAAGYTIYYSDSVKGRFTISRDNAKSSLYLQMNSLRAEDTAVYYCVRDMTIYDGYYVDYALDYWGQGTLVTVSS
VL: DIVMTQSPSSVSASVGDRVTITCRASQNINIWLSWYQQKPGKAPKLFIYKASNLHTGVPSRFSGSGSGTDFTLTISSLQPEDFATYYCLQSQSYPLTFGQGTKLEIK
notes: Humanized 5F7; also called humanized 5F7

- IC50, inhibition of IL-36α induced IL-8 release in primary human dermal fibroblast (HDF) cells (IL-8 ELISA, OD450) (membrane hIL-36R [5]): 0.00361 µg/mL
- IC50, inhibition of IL-36α induced IL-8 release in A431 cells (IL-8 ELISA, OD450) [panel IL-36α] (membrane hIL-36R [6]): 0.0955 µg/mL
- IC50, inhibition of IL-36β induced IL-8 release in A431 cells (IL-8 ELISA, OD450) [panel IL-36β] (membrane hIL-36R [6]): 0.0532 µg/mL
- IC50, inhibition of IL-36γ induced IL-8 release in A431 cells (IL-8 ELISA, OD450) [panel IL-36γ] (membrane hIL-36R [6]): 0.0065 µg/mL
- IC50, IL-36R reporter assay: inhibition of ligand induced luminescence in Jurkat-IL36R-IL1Racp-NFkB-luc cells (printed BI 655130) (membrane hIL-36R [1]): 0.0217 µg/mL
- IC50, inhibition of IL-36α induced IL-6 release in primary human epithelial keratinocytes (HEK cells) [panel IL-6] (membrane hIL-36R [7]): 0.0982 µg/mL
- IC50, inhibition of IL-36α induced IL-8 release in primary human epithelial keratinocytes (HEK cells) [panel IL-8] (membrane hIL-36R [7]): 0.0684 µg/mL
- IC50, inhibition of IL-36α induced TNF-α release in primary human epithelial keratinocytes (HEK cells) [panel TNF-α] (membrane hIL-36R [7]): 0.027 µg/mL
- EC50 (membrane hIL-36R [8]): 0.0875 µg/mL
- IC50, IL-36R reporter assay: inhibition of IL-36α induced luminescence in Jurkat-IL36R-IL1Racp-NFkB-luc cells (membrane hIL-36R [9]): 0.057 nM
- EC50 (recombinant hIL-36R-his): 0.0111 µg/mL
- binding result [3]: no binding (tested: up to 100 nM IL-36R)
- IC50, inhibition of IL-36β induced IL-6 release in primary human epithelial keratinocytes (HEK cells) [panel IL-6] (membrane hIL-36R [10]): 0.0229 µg/mL
- IC50, inhibition of IL-36β induced IL-8 release in primary human epithelial keratinocytes (HEK cells) [panel IL-8] (membrane hIL-36R [10]): 0.0293 µg/mL
- IC50, inhibition of IL-36β induced TNF-α release in primary human epithelial keratinocytes (HEK cells) [panel TNF-α] (membrane hIL-36R [10]): 0.0107 µg/mL
- binding result [11]: no binding (tested: 1 µg/mL)
- IC50, IL-36R reporter assay: inhibition of ligand induced luminescence in Jurkat-IL36R-IL1Racp-NFkB-luc cells (membrane hIL-36R [12]): 0.0133 µg/mL
- IC50, inhibition of IL-36γ induced IL-6 release in primary human epithelial keratinocytes (HEK cells) [panel IL-6] (membrane hIL-36R [13]): 0.0138 µg/mL
- IC50, inhibition of IL-36γ induced IL-8 release in primary human epithelial keratinocytes (HEK cells) [panel IL-8] (membrane hIL-36R [13]): 0.0077 µg/mL
- IC50, inhibition of IL-36γ induced TNF-α release in primary human epithelial keratinocytes (HEK cells) [panel TNF-α] (membrane hIL-36R [13]): 0.00575 µg/mL
- Kd [14]: 0.935 nM
- koff [14]: 3.66e-05 s⁻¹
- kon [14]: 39200 M⁻¹ s⁻¹
B2: BI655130 (antibody, V domains shown)
VH: QVQLVQSGAEVKKPGASVKVSCKASGYSFTSSWIHWVKQAPGQGLEWMGEINPGNVRTNYNENFRNKVTMTVDTSISTAYMELSRLRSDDTAVYYCTVVFYGEPYFPYWGQGTLVTVSS
VL: QIVLTQSPGTLSLSPGERATMTCTASSSVSSSYFHWYQQKPGQAPRLWIYRTSRLASGVPDRFSGSGSGTDFTLTISRLEPEDAATYYCHQFHRSPLTFGAGTKLEIK
notes: also called benchmark antibody
